Data: US10413564B2, “Compositions and methods for combating drug-resistant cancers” (NATIONAL YANG-MING UNIVERSITY, priority 2016, dated 2019)
Entries after “also recorded” stand apart in the source; their conditions may differ. Like-named read-outs stand apart in the source and are kept apart here.

How the values were obtained:
[1] = system: colorectal tumors harboring a KRAS mutation; settings: patients, FDA approval background; cited from earlier work
FaDu-Ctx^R cells = assay: Growth inhibition of the cetuximab-resistant subline FaDu-Ctx^R; format: cell-based, human
Experimental: A cetuximab-resistant HNSCC subline (named FaDu-Ctx^R) was established by in vivo selection. 1×10^5 wild-type FaDu cells per mouse were inoculated into the subcutaneous area of Balb/c nude mice (n=4). Two mice were treated with PBS and two were treated with cetuxmab once a week. […] After 10 weeks, the xenograpfted tumor was harvested for primary culture. […] The resistance of FaDu-Cxt^R was confirmed in vivo and in vitro. Subsequently, these two sublines were inoculated into nude mice again and treated with cetuximab.
After 24 h treatment, the medium was removed.

NF-κB = NF-κB luciferase reporter assay; format: cell-based, human; settings: cetuximab-resistant cells
From the text: Activation of NF-κB in cetuximab-resistant cells was evident by an increased expression of nuclear p65 and p52 proteins and an enhanced NF-κB activity. Knockdown of LTB reduced nuclear p65 and p52, and suppression of LTB by either shRNA or a LTβ neutralizing antibody reduced NF-κB reporter activity.
The reporter constructs (PGL4.2-LTB-WT/PGL4.2-LTB-MUT/pGL4.23 promoter) were co-transfected into HEK-293T, FaDu or OECM1/OECM1-Ctx^R cells with different expression/control vector(s) as indicated in each experiment. A plasmid expressing the bacterial β-galactosidase gene (pCMV-βgal) was co-transfected in each experiment as an internal control for transfection efficiency. Cells were harvested after 48 hours of transfection and luciferase activities were assayed. The relative promoter activities were expressed as the fold-change in luciferase activity after normalization to β-galactosidase activity.

OECM1-Ctx^R cells [2] = assay: Growth inhibition of the cetuximab-resistant subline OECM1-Ctx^R; format: cell-based, human
Experimental: (§2) A total of 5×10^4 cells per well were seeded in a 96-well plate with triplicate and incubated for 24 h and then treated with different concentrations of indicated drugs. After 24 h treatment, the medium was removed. The MTT assay solution was added to each well, and the plate was incubated for 1 h at 37° C. After incubation, the solution was carefully discarded and dimethyl sulphoxide was added to dissolve newly formed mitochondrial MTT crystals. Finally, the plate was read using a microplate reader at 540 nm. Based on the data of cell viability assay, IC50-value calculation was performed by Sigmaplot 10.0 (Systat Software Inc., San Jose, Calif.).

EGFR-ICD = EGFR-ICD (Homo sapiens, UniProt P00533); assay: In vitro binding assay, EGFR-ICD and LTβ interaction; settings: LTβ β-sheet peptides
From the text: (§1) Since LTβ also induces EGFR-ICD phosphorylation in vitro, the applicant also investigated whether interception of EGFR-ICD and LTβ interaction could attenuate EGFR phosphorylation.

EGFR-ECD = EGFR-ECD (Homo sapiens, UniProt P00533); assay: Peptide in vitro binding assay with EGFR-ECD; settings: in vitro binding assay of peptides P1-P10
Experimental: The purified full-length EGFR and EGFR-ECD was incubated with peptides containing sequences of different β-sheets of LTβ.
P1-P10 (SEQ ID NOs: 2-10) were tested for in vitro binding assay.

EGF-EGFR binding = target: T1, EGF-EGFR binding (Homo sapiens, UniProt P00533); assay: EGF binding (flow cytometry); format: cell-based; settings: OECM1-Ctx^R
T1 construct: examined the effect of treating the peptides containing different β-sheets of LTβ on OECM1-Ctx^R; endogenous in cells; host or cells: OECM1-CtxR (cetuximab-resistant subline of OECM1); parental OECM1 for comparison
Experimental: To analyze EGF binding, the cells were resuspended, incubated in a PE-conjugated anti-EGF antibody and evaluated using a Cytomics FC 500 instrument (Beckman-Coulter Inc., Fullerton, Calif.). The EGF-bound populations were defined compared with the IgG control group.

EGFR [3] = target: T2, EGFR (Homo sapiens, UniProt P00533); assay: In vitro kinase assay of EGFR phosphorylation; format: biochemical; set-up: Since LTβ also induces EGFR-ICD phosphorylation in vitro
From the text: as §1

EGFR [4] = target: T2, EGFR; assay: EGFR Y1068 phosphorylation in OECM1-Ctx^R treated with LTβ β-sheet peptides; format: cell-based; set-up: examined the effect of treating the peptides containing different β-sheets of LTβ on OECM1-Ctx^R; endogenous in cells; host or cells: OECM1-CtxR (cetuximab-resistant subline of OECM1); parental OECM1 for comparison
OECM1-Ctx^R cells [5] = assay: Clonogenecity assay, sensitization of OECM1-Ctx^R to cetuximab by peptides; format: cell-based, human; settings: OECM1-Ctx^R / cetuximab-resistant cells
Experimental: The colonies were stained with crystal violet and counted if the size was great than 0.5 mm.
5,000 cells/well were seeded into 24-well plates. After 10 days of culturing, cells were washed by cold PBS twice and fixed by 4% paraformaldehyde for 1 hour. Cells then were stained by 0.005% crystal violet at 4° C. overnight. Colonies with a diameter larger than 0.5 mm were counted.

EGFR [6] = target: T2, EGFR; assay: EGFR dimerization in OECM1-Ctx^R; format: cell-based; set-up: examined the effect of treating the peptides containing different β-sheets of LTβ on OECM1-Ctx^R; endogenous in cells; host or cells: OECM1-CtxR (cetuximab-resistant subline of OECM1); parental OECM1 for comparison
[7] = system: OECM1-Ctx^R or primary HNSCC cells; assay: Sensitization to cetuximab treatment by pathway inhibitors
Experimental: as §2

For panitumumab, the “effect in colorectal tumors harboring a KRAS mutation” value [1] is listed as “little or no effect”.
With “CCGGCGAGAGGGTGTACGTCAACATCTCGAGATGTTGACGTACACCCTCTCGTTTTT G (CCGGCGAGAGGGTGTACGTCAACATCTCGAGATGTTGACGTACACCCTCTCGTTTTTG; expressed or natural sequence) [shRNA]” the “cetuximab resistance after knockdown of LTβ” value (FaDu-Ctx^R cells) was “reverses cetuximab resistance”, the NF-κB reporter activity (NF-κB) was “reduced” and the “cetuximab resistance after knockdown of LTβ” value (OECM1-Ctx^R cells [2]) was “reverses cetuximab resistance”.
With “WYTSVGFGGLVQLR (beta-sheet of LTbeta) [P8]” the “interaction in the in vitro binding assay (EGFR-ICD context)” value (“interaction … (EGFR-ICD context)” for short) (EGFR-ICD) was “interacted with LTβ” and the “interaction with EGFR-ECD” value (EGFR-ECD) was “interact”.
For ERVYVNISH (beta-sheet of LTbeta) [P9], the EGF-EGFR binding (EGF-EGFR binding) was “reduced”, the “EGFR phosphorylation, in vitro kinase assay” value (EGFR [3]) was “suppresses EGFR phosphorylation most significantly” and the “EGFR Y1068 phosphorylation” value (EGFR [4]; listed as 9th β-sheet) was “suppressed; also recorded: more prominent effect”. For the same compound, the “sensitization to cetuximab treatment by peptide” value (OECM1-Ctx^R cells [5]; listed as 9th β-sheet) was “capable for sensitizing; also recorded: sensitized”, the “interaction … (EGFR-ICD context)” value (EGFR-ICD) was “interacted with LTβ” and the “interaction with EGFR-ECD” value (EGFR-ECD) was “interact”. For the same compound, the EGFR dimerization (EGFR [6]) was “inhibits”.
With `CC(C)C[C@H](NC(=O)[C@H](Cc1ccccc1)NC(=O)c1cnccn1)B(O)O` [bortezomib] the “sensitization to cetuximab treatment by inhibition of NF-κB activity” value [7] was “sensitized”.
In the case of “QDGLYYLYCLVGYR (beta-sheet of LTbeta) [P5]”, the “EGFR phosphorylation, in vitro kinase assay” value (EGFR [3]) is reported as “suppresses EGFR phosphorylation most significantly”, the “EGFR Y1068 phosphorylation” value (EGFR [4]) is reported as “suppressed” and the “sensitization to cetuximab treatment by peptide” value (OECM1-Ctx^R cells [5]; listed as 5th β-sheet) is reported as “capable for sensitizing; also recorded: sensitized”. The “interaction … (EGFR-ICD context)” value (EGFR-ICD) was “interacted with LTβ” and the “interaction with EGFR-ECD” value (EGFR-ECD) was “interact”.
